Reference: paper PMC6639074 (eLife, 2019)

Molecular target: T1, GFP-FLAG-STAMBPL1 (human, UniProt Q96FJ0 1-436)
T1 construct: STAMBPL1, human, amplified from FLAG-HA-STAMBPL1; GAGAGA linker between GFP and FLAG; also called GFP-STAMBPL1; recombinant STAMBPL1; source: HEK293T, transfected, purified (FLAG M2 resin, 3X FLAG peptide); MEFs, transfected (relocation imaging); not shown: GFP, N-terminal, kept; FLAG, N-terminal, kept
T1 sequence (looked up): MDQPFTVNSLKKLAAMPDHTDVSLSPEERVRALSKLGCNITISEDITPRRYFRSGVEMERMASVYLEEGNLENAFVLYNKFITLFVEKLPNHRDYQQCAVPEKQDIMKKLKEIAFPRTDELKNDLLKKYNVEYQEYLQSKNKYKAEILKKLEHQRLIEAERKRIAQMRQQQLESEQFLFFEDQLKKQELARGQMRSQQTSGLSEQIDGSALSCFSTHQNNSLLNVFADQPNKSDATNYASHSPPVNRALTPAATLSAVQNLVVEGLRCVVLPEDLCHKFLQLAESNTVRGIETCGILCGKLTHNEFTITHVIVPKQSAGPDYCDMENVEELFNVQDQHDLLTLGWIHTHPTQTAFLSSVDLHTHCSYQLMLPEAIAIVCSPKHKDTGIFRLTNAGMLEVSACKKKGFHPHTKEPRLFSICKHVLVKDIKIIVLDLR
Experiment: pull-down; purified GFP-FLAG-STAMBPL1 applied to GST-Rab beads with 100 uM GppNHp or GDP, 4 C, 2 hr, high salt elution, Coomassie stained gel
Settings: both partners purified

B1: GST-Rab2A(Q65L) (natural protein, human, UniProt P61019 1-212, looked up)
chain: MAYAYLFKYIIIGDTGVGKSCLLLQFTDKRFQPVHDLTIGVEFGARMITIDGKQIKLQIWDTAGLESFRSITRSYYRGAAGALLVYDITRRDTFNHLTTWLEDARQHSNSNMVIMLIGNKSDLESRREVKKEEGEAFAREHGLIFMETSAKTASNVEEAFINTAKEIYEKIQEGVFDINNEANGIKIGPQHAATNATHAGNQGGQQAGGGCC
notes: with GppNHp; also called GST-Rab2A QL; recombinant Rab2A
Q: Does B1 bind?
A: Result: binds
